This data set deals with T1, MOC-Arg-Ala-Glu-Leu-Gln-Gly-Pro-Tyr-Asp-Lys-DNP-NH2.
T1 chain: RAELQGPYDK

The values that follow come from patent US20100143888.

B1: Human Rhinovirus serotype 1A 3C Protease (protein)
chain: GPEEEFGRSILKNNTCVITTGNGKFTGLGIHDRILIIPTHADPGREVQVNGVHTKVLDSYDLYNRDGVKLEITVIQLDRNEKFRDIRKYIPETEDDYPECNLALSANQDEPTIIKVGDVVSYGNILLSGNQTARMLKYNYPTKSGYCGGVLYKIGQILGIHVGGNGRDGFSAMLLRSYFTDTQ
For B1, the “Km (fluorescence resonance energy transfer protease activity assay)” value is reported as “with a Km value of 16.8 µM”.
